The values that follow come from PMC5133369 (Experimental & Molecular Medicine, 2016).

The target of the assay is RNA polymerase II (largest subunit, with its C-terminal domain) (Homo sapiens, UniProt P24928). Briefly: far-Western, overlay or dot blot.

B1: PanCTD scFv-Fc fusion protein (scFv, V domains shown)
VH: EVQLVESGGGLVQPGGSLRLSCAASGFNIKDTYIHWVRQAPGKGLEWVARIYPTNGYTRYADSVKGRFTISADTSKNTAYLQMNSLRAEDTAVYYCSRYGRRGVFDYWGQGTLVTVSS
VL: not shown
B1: the binding result is given as “binds”.

B2: pCTD-S7S5 scFv-Fc fusion protein (scFv, V domains shown)
VH: EVQLVESGGGLVQPGGSLRLSCAASGFNIKDTYIHWVRQAPGKGLEWVARIYPTNGYTRYADSVKGRFTISADTSKNTAYLQMNSLRAEDTAVYYCSRDPWSRWAKVFDYWGQGTLVTVSS
VL: not shown
For B2, the binding result is given as “binds”.

B3: pCTD-1stS2 scFv-Fc fusion protein (scFv, V domains shown)
VH: EVQLVESGGGLVQPGGSLRLSCAASGFNIKDTYIHWVRQAPGKGLEWVARIYPTNGYTRYADSVKGRFTISADTSKNTAYLQMNSLRAEDTAVYYCSRGAFWFSRSHFDYWGQGTLVTVSS
VL: not shown
With B3, the binding result is “binds”.

B4: pCTD-2ndS2 scFv-Fc fusion protein (scFv, V domains shown)
VH: EVQLVESGGGLVQPGGSLRLSCAASGFNIKDTYIHWVRQAPGKGLEWVARIYPTNGYTRYADSVKGRFTISADTSKNTAYLQMNSLRAEDTAVYYCSRDRAQWWEYKNAMDVWGQGTLVTVSS
VL: not shown
Regarding B4, the binding result is “binds”.

B5: pCTD-1stS5 scFv-Fc fusion protein (scFv, V domains shown)
VH: EVQLVESGGGLVQPGGSLRLSCAASGFNIKDTYIHWVRQAPGKGLEWVARIYPTNGYTRYADSVKGRFTISADTSKNTAYLQMNSLRAEDTAVYYCSRGPWPGSHHKYAMDVWGQGTLVTVSS
VL: not shown
Consider B5, for which the binding result is on record as “binds”.

B6: pCTD-S7 scFv-Fc fusion protein (scFv, V domains shown)
VH: EVQLVESGGGLVQPGGSLRLSCAASGFNIKDTYIHWVRQAPGKGLEWVARIYPTNGYTRYADSVKGRFTISADTSKNTAYLQMNSLRAEDTAVYYCSRGISYPWQRGYYYAMDVWGQGTLVTVSS
VL: not shown
In the case of B6, the binding result is “binds”.
